From patent US20090305255

How the values were obtained:
[1] = target: SAKI (Substrate of AIM-1 kinase)
SAKI (Substrate of AIM-1 kinase), sequence (chain, as listed by the source): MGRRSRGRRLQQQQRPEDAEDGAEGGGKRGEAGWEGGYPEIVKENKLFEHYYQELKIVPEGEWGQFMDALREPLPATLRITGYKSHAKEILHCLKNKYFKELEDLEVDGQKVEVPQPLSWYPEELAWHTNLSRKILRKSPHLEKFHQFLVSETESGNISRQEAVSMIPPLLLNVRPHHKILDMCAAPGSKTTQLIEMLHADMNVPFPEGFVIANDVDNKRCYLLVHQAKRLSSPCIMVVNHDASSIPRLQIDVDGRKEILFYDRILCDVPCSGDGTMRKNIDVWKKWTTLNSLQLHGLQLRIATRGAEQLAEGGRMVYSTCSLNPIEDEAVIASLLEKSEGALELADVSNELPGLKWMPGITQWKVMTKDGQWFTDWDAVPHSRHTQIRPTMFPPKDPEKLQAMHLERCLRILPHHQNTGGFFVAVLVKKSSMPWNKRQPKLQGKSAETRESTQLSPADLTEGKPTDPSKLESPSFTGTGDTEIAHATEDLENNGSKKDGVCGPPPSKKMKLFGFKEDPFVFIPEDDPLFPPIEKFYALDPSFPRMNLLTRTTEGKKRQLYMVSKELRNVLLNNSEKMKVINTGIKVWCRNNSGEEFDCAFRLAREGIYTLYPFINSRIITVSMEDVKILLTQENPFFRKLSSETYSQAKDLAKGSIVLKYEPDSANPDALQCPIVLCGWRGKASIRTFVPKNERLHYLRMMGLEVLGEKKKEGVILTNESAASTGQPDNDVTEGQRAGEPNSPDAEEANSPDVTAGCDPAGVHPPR

B1: AIM-1 (Aurora and Ipl1-like midbody-associated protein) (protein)
chain: MAQKENSYPWPYGRQTAPSGLSTLPQRVLRKEPVTPSALVLMSRSNVQPTAAPGQKVMENSSGTPDILTRHFTIDDFEIGRPLGKGKFGNVYLAREKKSHFIVALKVLFKSQIEKEGVEHQLRREIEIQAHLHHPNILRLYNYFYDRRRIYLILEYAPRGELYKELQKSCTFDEQRTATIMEELADALMYCHGKKVIHRDIKPENLLLGLKGELKIADFGWSVHAPSLRRKTMCGTLDYLPPEMIEGRMHNEKVDLWCIGVLCYELLVGNPPFESASHNETYRRIVKVDLKFPASVPMGAQDLISKLLRHNPSERLPLAQVSAHPWVRANSRRVLPPSALQSVA
in-vitro phosphorylation experiments (H3 histone, P68431): both AIM-1 and Aik phosphorylated H3 histone
immunoblotting with the anti-H3 histone Ser-10 phosphorylation site antibody after expression of the AIM-1 kinase-deficient mutant protein in HeLa [1]: there was a protein that is seemingly phosphorylated by AIM-1 in the region close to 100 kDa

B2: Aik (protein)
chain: MDRSKENCISGPVKATAPVGGPKRVLVTQQFPCQNPLPVNSGQAQRVLCPSNSSQRIPLQAQKLVSSHKPVQNQKQKQLQATSVPHPVSRPLNNTQKSKQPLPSAPENNPEEELASKQKNEESKKRQWALEDFEIGRPLGKGKFGNVYLAREKQSKFILALKVLFKAQLEKAGVEHQLRREVEIQSHLRHPNILRLYGYFHDATRVYLILEYAPLGTVYRELQKLSKFDEQRTATYITELANALSYCHSKRVIHRDIKPENLLLGSAGELKIADFGWSVHAPSSRRTTLCGTLDYLPPEMIEGRMHDEKVDLWSLGVLCYEFLVGKPPFEANTYQETYKRISRVEFTFPDFVTEGARDLISRLLKHNPSQRPMLREVLEHPWITANSSKPSNCQNKESASKQS
in-vitro phosphorylation experiments (H3 histone, P68431): both AIM-1 and Aik phosphorylated H3 histone
